Experiments:
[1] = biological target: His-SigH (Mycobacterium tuberculosis H37Rv, UniProt P9WGH9 1-216); experiment: EMSA
[2] = biological target: T1, His-AosR (Mycobacterium tuberculosis H37Rv, UniProt P9WM25 1-218); experiment: EMSA
T1 sequence: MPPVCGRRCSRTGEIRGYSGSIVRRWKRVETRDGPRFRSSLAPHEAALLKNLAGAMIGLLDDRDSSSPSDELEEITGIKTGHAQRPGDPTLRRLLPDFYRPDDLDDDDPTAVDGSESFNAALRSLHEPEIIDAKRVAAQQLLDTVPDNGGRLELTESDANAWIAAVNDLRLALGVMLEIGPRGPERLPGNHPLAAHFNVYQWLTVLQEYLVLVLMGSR

Sequence of His-SigH (P9WGH9 whole entry): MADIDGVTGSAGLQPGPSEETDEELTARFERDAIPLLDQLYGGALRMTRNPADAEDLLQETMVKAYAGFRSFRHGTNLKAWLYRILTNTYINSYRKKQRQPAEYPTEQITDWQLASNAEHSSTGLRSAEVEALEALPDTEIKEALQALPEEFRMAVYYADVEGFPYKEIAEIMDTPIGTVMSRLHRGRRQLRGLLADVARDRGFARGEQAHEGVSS

B1: 100 bp upstream of mec (intragenic auxiliary promoter) (dsDNA)
DNA 1: AGTCGTGCGGTGCTGGCCGGCGTGCTCAATGCTCAGCCGGTAGCCGGAATACCGACCTACCGTGACATGTTTTCCCGGAGCATTCGGGTCTTGAAACTCA
DNA 2: TATGAGTTTCAGGACCCGAATGCTCCCCGGGAAACATGTCACGGTAGGTCGGTATTCCGGCTACCGGCTGAGCATTGAGCACGCCGGCCAGCCACCGCACGACT
Question: Does B1 bind [1]?
Answer: Result: binds

Question: Does B1 bind [2]?
Answer: Result: binds

Reference: publication PMC8280819 (The EMBO Journal, 2021)
